Where two headings read alike, the source gives them in different places.

Data set [1] addresses T1, UVR8^W285A (residues 12–421) (A. thaliana, UniProt Q9FN03 12-421, W285A).
T1 sequence: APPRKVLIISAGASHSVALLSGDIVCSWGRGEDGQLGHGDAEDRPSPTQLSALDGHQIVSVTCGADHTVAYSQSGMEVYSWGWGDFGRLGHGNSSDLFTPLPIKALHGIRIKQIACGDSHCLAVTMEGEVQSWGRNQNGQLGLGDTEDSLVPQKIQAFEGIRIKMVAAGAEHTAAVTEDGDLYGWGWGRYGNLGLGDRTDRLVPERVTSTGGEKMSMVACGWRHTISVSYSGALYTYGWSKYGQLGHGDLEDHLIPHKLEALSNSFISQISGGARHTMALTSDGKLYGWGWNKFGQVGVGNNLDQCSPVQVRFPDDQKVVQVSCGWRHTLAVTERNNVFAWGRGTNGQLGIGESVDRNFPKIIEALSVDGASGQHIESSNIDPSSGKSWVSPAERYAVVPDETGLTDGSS
The data set can be described thus: crystal structure.

Data set [2] concerns the molecule itself. Description: SDS-PAGE of dimer and monomer.
Data set [3] deals with T2, UVR8^W285A-Strep II (A. thaliana, UniProt Q9FN03 1-440, W285A).
T2 sequence: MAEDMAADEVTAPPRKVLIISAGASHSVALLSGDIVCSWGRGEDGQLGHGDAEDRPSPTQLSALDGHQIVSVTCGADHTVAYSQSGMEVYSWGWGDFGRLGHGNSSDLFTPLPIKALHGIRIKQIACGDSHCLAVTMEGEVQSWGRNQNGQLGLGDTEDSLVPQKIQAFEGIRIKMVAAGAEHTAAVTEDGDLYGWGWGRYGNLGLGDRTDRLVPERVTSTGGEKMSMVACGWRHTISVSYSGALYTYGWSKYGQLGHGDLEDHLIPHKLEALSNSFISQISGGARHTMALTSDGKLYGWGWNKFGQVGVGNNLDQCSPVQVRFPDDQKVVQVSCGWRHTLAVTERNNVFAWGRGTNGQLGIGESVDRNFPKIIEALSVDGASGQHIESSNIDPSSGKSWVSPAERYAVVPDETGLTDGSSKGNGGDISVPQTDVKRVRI
The data set can be described thus: pull-down.

For data set [4], the target named is T2, UVR8^W285A-Strep II. The data set can be described thus: pull-down. This is another data set of the same source.

B1: RUP2 (residues 21–366) (domain or fragment)
chain: RYEWDLSLSTVVSSSSSSASDVIGAIEFDPTDNIVATAGISRKIRFYGLPSLLRNNAVSGTGVSFVDQATACEYYICTPAKLSSLRWRPGSGGRVIGSGDYDGVVMEYDLEKRTPVFERDEHGGRRVWSVDYTRHGGASTVGASGSDDGTMQVWDPRCPPEESVGVVRPAGICRSAVCCVEFDPSGGPAVAVGCADRKGYVYDIRKLVDPALTLQGHTKTVSYVRFLDGGTVVTAGTDGCLKLWSVEDGRVIRTYEGHVNNRNFVGLSVWRNGALFGCGSENNRVFVYDRRWGKPVWVDGFEPVGMNSGSDKRFVSSVCWRQSGVDQCTLVAGGSDGVLQVYVGKR
Take B1: the binding result in data set [1] is recorded as “binds”.

B2: UVR8^N396 (residues 1–396) (domain or fragment)
chain: MAEDMAADEVTAPPRKVLIISAGASHSVALLSGDIVCSWGRGEDGQLGHGDAEDRPSPTQLSALDGHQIVSVTCGADHTVAYSQSGMEVYSWGWGDFGRLGHGNSSDLFTPLPIKALHGIRIKQIACGDSHCLAVTMEGEVQSWGRNQNGQLGLGDTEDSLVPQKIQAFEGIRIKMVAAGAEHTAAVTEDGDLYGWGWGRYGNLGLGDRTDRLVPERVTSTGGEKMSMVACGWRHTISVSYSGALYTYGWSKYGQLGHGDLEDHLIPHKLEALSNSFISQISGGWRHTMALTSDGKLYGWGWNKFGQVGVGNNLDQCSPVQVRFPDDQKVVQVSCGWRHTLAVTERNNVFAWGRGTNGQLGIGESVDRNFPKIIEALSVDGASGQHIESSNIDPSS
B2: the binding result in data set [2] is listed as “binds”.

B3: REPRESSOR OF UV-B PHOTOMORPHOGENESIS 2 (RUP2), C-terminal 3×Flag (natural protein)
chain: MNTLHPHKQQQEQAQQQEEARYEWDLSLSTVVSSSSSSASDVIGAIEFDPTDNIVATAGISRKIRFYGLPSLLRNNAVSGTGVSFVDQATACEYYICTPAKLSSLRWRPGSGGRVIGSGDYDGVVMEYDLEKRTPVFERDEHGGRRVWSVDYTRHGGASTVGASGSDDGTMQVWDPRCPPEESVGVVRPAGICRSAVCCVEFDPSGGPAVAVGCADRKGYVYDIRKLVDPALTLQGHTKTVSYVRFLDGGTVVTAGTDGCLKLWSVEDGRVIRTYEGHVNNRNFVGLSVWRNGALFGCGSENNRVFVYDRRWGKPVWVDGFEPVGMNSGSDKRFVSSVCWRQSGVDQCTLVAGGSDGVLQVYVGKRKP
In the case of B3, in the data set with UVR8^W285A-Strep II [3], the binding result is “binds”.

B4: REPRESSOR OF UV-B PHOTOMORPHOGENESIS 1 (RUP1), C-terminal 3×Flag (natural protein)
chain: MEALFCSEIPNNNIRSSINDLSSSSSYTWPMIMTSSSSSSSSPTIMNIENIPRCDWDLSLSAVVSSASTGSDAIGAIEFDPTGEIIATGGIARKIRSYRLSSLLESRDDHVTASESYICTPAKLSSLKWRPDFSGRVIGSGDYDGVVTEYDVEKQVPVSERDEHGGRRIWSVDYTLYNGSLIGASGSDDGTVQMWDPRNGGTLEETVRPGGGAAICSVEFDPFGGSSIAVGCADRNAYVYDIRRLVDPLIVLDGHTKTVTYARFMDSHTIVTGSTDGSLKQWDIDNGRRVVRTYRGHVNSRNFVGLSVWRHGGLVVSGSENNQVFVYDKRWEEPVWVCGLGHTNRFGSDRRFVSSVCLRQVDEDWCTLVAGGSDGALEIFSGKQS
Consider B4, for which the binding result in the data set with UVR8^W285A-Strep II [4] is recorded as “binds”.

The values above are taken from publication PMC9860181 (Plant Communications, 2022).
